Source: US20230218738A1 (Pfizer, published 2023)
Numbering of substitutions follows the chain as printed.

T1: RSV F protein mutant pXCS855 (RSV A2, UniProt P03420 26-109)
T1 chain 1: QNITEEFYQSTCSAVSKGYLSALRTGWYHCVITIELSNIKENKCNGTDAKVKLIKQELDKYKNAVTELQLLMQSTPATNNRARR
T1 chain 2: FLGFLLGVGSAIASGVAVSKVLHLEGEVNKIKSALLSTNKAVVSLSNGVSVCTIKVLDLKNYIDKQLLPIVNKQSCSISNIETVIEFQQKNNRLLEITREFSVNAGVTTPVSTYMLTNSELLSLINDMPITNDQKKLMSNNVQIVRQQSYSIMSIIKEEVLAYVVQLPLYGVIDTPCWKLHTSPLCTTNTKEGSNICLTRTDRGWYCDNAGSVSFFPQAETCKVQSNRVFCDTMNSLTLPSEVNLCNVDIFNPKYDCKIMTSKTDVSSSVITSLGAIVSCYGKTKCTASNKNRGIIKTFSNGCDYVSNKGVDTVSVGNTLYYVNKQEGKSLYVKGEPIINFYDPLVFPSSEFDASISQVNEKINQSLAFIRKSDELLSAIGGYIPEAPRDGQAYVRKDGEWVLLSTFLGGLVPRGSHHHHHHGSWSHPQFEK

T2: RSV F protein mutant pXCS785 (RSV A2, UniProt P03420 26-109)
T2 chain 1: T1 chain 1
T2 chain 2: T1 chain 2 with I54S, V160I, S350D

T3: RSV F protein mutant pXCS886 (RSV A2, UniProt P03420 26-109)
T3 chain 1: T1 chain 1 with C30S, T78C
T3 chain 2: T1 chain 2 with I12C, C52L, E351Q, D353S

T4: RSV F protein mutant pXCS856 (RSV A2, UniProt P03420 26-109)
T4 chain 1: T1 chain 1
T4 chain 2: T1 chain 2 with I54S, V160I

T5: RSV F protein mutant pXCS774 (RSV A2, UniProt P03420 26-109)
T5 chain 1: T1 chain 1 with C30S, T78C
T5 chain 2: T1 chain 2 with I12C, C52L, I54S, V160I, E351Q, D353S

B1: MPE8 (antibody, V domains shown)
VH: EVQLVESGGGLVKPGGSLRLSCAASGFTFSSYSMNWVRQAPGKGLEWVSSISASSSYSDYADSAKGRFTISRDNAKTSLFLQMNSLRAEDTAIYFCARARATGYSSITPYFDIWGQGTLVTVSS
VL: QSVVTQTPSVSGAPGQRVTISCTGSSSNIGAGYDVHWYQQLPGTAPKLLIYDNNNRPSGVPDRFSASKSGTSASLAITGLQAEDEADYYCQSYDRNLSGVFGTGTKVTVL
notes: also called MPEG
B2: AM22 (antibody, V domains shown)
VH: QVQLVQSGAEVKKPGATVKVSCKISGHTLIKLSIHWVRQAPGKGLEWMGGYEGEVDEIFYAQKFQHRLTVIADTATDTVYMELGRLTSDDTAVYFCGTLGVTVTEAGLGIDDYWGQGTLVTVSS
VL: EIVLTQSPGTLSLSPGERATLSCRASQIVSRNHLAWYQQKPGQAPRLLIFGASSRATGIPVRFSGSGSGTDFTLTINGLAPEDFAVYYCLSSDSSIFTFGPGTKVDFK

Experiments:
Experiment in all cases: BLI (Octet), F on anti-HIS tip, 20 nM mAb
[1] = biological target: T1, RSV F protein mutant pXCS855
[2] = biological target: T2, RSV F protein mutant pXCS785
[3] = biological target: T3, RSV F protein mutant pXCS886
[4] = biological target: RSV F protein mutant pXCS884 (RSV A2, UniProt P03420 26-109)
[5] = biological target: RSV F protein mutant pXCS891 (RSV A2, UniProt P03420 26-109)
[6] = biological target: RSV F protein mutant pXCS857 (RSV A2, UniProt P03420 26-109)
[7] = biological target: RSV F protein mutant pXCS758 (RSV A2, UniProt P03420 26-109)
[8] = biological target: T4, RSV F protein mutant pXCS856
[9] = biological target: T5, RSV F protein mutant pXCS774

Binder | Response (nm shift) [1] [nm] | Response (nm shift) [2] [nm] | Response (nm shift) [3] [nm] | Response (nm shift) [4] [nm] | Response (nm shift) [5] [nm] | Response (nm shift) [6] [nm] | Response (nm shift) [7] [nm] | Response (nm shift) [8] [nm] | Response (nm shift) [9] [nm]
B1 | 0.982 | 0.937 | 0.863 | 0.784 | 0.92 | 1.09 | 0.816 | 1.06 | 0.795
B2 | 0.523 | 0.465 | 0.443 | 0.323 | 0.461 | 0.563 | 0.273 | 0.568 | 0.34
